Some targets named below: VRK2 (h) (human) (UniProt Q86Y07); Mnk2 (h) (human) (UniProt Q9HBH9); Pyk2 (h) (human) (UniProt Q14289); Abl(T315I) (h) (human) (UniProt P00519); CDK5/p35 (h) (human) (UniProt Q00535); Abl(Y253F) (h) (human) (UniProt P00519); PKBβ (h) (human) (UniProt P31751); GSK3β (h) (human) (UniProt P49841); CHK2(R145W) (h) (human) (UniProt O96017); Pim-1 (h) (human) (UniProt P11309); MKK6 (h) (human) (UniProt P52564); JNK3 (h) (human) (UniProt P53779); ZAP-70 (h) (human) (UniProt P43403); MARK1 (h) (human) (UniProt Q9P0L2); HIPK3 (h) (human) (UniProt Q9H422).

Holding throughout (experiment): cell-based or functional assay
In a further assay the target is T1, EphA3 (h) (human) (UniProt P29320).
T1 sequence (looked up): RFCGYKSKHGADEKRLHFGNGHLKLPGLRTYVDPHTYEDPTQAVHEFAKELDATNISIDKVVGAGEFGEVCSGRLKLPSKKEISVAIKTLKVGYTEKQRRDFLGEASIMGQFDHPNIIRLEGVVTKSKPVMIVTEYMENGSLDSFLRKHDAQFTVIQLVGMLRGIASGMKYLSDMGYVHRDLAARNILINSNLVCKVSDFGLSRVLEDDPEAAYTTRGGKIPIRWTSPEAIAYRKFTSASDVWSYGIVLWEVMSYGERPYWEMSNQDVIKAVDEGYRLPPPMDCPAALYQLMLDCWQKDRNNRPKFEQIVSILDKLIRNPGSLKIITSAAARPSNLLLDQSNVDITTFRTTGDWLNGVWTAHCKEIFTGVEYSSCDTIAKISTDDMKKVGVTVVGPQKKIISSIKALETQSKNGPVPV

Another assay concerns the target T2, PhKγ2 (h) (human) (UniProt P15735).
T2 sequence (looked up): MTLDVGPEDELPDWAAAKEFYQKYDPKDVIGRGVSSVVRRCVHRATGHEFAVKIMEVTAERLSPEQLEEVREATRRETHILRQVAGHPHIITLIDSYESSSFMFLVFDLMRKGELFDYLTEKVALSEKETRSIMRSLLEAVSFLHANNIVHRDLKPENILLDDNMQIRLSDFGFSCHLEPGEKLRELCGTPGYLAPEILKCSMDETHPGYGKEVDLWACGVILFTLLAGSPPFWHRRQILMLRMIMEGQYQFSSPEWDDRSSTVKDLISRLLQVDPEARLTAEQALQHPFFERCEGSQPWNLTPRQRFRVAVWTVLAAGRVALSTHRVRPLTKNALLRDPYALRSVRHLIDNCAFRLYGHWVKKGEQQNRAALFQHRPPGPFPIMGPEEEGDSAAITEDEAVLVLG

A further assay concerns the target T3, PDK1 (h) (human) (UniProt O15530).
T3 sequence (looked up): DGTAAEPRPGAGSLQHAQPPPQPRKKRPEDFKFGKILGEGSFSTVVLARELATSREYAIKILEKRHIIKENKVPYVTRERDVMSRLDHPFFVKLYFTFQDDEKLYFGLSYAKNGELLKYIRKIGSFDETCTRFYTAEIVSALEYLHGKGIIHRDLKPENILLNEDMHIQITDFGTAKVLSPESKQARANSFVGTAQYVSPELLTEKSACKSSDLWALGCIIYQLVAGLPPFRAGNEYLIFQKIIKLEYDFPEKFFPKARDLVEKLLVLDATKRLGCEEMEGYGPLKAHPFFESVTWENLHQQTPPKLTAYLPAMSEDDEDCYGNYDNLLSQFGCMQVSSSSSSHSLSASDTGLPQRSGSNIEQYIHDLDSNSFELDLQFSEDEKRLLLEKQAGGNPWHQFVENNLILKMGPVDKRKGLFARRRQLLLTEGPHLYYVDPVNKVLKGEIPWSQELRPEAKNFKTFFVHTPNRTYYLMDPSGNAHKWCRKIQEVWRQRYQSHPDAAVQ

For the next assay, the target named is T4, EphA5 (h) (human) (UniProt P54756).
T4 sequence (looked up): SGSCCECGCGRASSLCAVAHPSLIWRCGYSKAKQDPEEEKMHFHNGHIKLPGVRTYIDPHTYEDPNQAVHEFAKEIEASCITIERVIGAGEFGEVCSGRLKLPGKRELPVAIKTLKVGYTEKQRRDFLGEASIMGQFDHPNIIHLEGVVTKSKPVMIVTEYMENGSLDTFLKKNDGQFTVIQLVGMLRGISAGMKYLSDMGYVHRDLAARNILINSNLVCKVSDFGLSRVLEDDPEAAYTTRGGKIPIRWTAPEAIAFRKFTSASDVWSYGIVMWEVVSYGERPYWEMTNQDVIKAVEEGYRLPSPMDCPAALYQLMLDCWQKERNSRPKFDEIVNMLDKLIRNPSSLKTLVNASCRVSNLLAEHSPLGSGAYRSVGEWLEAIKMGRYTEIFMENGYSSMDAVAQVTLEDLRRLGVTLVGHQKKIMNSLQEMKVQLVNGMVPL

Assay [1] addresses BDNF/NT-3 growth factors receptor (human) (UniProt Q16620).

The values below come from patent publication US20160136234A1.

Chain of Abl(T315I) (h) (human) (P00519 27-1130 T315I limits assumed): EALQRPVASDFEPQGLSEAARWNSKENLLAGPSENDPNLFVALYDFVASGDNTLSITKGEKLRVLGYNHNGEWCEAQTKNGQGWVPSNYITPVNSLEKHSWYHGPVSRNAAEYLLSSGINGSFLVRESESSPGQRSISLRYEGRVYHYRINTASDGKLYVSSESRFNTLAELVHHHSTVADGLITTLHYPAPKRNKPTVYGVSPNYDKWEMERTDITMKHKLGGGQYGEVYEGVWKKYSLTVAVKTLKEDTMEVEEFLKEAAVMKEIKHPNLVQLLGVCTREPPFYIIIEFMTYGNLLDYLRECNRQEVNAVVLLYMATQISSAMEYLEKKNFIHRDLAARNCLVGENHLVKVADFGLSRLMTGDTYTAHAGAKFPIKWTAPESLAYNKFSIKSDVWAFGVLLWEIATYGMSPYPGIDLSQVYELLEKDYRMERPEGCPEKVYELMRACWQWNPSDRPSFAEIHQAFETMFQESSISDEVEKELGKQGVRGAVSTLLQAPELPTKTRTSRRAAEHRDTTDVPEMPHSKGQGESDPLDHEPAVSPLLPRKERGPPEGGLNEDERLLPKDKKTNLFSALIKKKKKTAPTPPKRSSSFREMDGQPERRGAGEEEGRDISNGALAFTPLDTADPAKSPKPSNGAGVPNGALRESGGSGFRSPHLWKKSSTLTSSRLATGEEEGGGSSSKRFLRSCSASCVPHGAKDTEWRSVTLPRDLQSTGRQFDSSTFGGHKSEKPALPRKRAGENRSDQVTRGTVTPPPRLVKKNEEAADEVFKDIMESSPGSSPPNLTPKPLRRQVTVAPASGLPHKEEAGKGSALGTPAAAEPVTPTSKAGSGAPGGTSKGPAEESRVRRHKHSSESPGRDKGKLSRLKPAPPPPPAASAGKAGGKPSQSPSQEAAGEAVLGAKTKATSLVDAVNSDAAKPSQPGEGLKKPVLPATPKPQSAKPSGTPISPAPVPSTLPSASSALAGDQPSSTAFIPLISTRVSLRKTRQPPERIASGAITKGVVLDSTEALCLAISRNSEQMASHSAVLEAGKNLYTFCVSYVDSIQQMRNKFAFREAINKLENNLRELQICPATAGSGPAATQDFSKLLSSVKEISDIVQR
Chain of VRK2 (h) (human) (Q86Y07 whole entry): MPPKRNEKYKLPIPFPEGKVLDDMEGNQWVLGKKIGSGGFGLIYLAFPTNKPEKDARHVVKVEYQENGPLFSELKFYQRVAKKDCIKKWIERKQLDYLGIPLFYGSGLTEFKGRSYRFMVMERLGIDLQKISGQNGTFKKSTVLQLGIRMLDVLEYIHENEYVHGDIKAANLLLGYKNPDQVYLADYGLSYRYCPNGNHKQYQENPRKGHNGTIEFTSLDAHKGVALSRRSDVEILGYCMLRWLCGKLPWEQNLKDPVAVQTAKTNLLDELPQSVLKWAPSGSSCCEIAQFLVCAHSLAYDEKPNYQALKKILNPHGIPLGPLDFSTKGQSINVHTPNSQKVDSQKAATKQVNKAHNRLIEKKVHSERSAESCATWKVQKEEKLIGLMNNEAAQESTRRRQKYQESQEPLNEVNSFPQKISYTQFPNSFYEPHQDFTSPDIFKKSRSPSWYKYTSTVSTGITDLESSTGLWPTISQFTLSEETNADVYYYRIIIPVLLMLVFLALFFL
Chain of CHK2(R145W) (h) (human) (O96017 5-543 R145W limits assumed): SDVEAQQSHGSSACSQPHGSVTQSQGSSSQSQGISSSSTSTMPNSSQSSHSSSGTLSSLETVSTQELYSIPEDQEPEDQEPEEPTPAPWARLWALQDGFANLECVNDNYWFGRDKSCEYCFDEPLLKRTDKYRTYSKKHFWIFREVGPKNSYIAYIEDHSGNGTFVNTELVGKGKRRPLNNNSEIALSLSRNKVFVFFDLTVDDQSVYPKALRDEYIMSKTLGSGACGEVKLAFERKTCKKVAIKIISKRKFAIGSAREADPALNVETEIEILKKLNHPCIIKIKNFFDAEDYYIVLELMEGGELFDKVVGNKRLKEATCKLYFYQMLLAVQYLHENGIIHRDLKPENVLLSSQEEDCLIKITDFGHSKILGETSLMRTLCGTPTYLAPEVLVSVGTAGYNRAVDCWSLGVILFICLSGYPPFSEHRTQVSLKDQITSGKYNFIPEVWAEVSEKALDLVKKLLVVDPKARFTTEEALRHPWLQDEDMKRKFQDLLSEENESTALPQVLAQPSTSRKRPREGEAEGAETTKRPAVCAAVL
Chain of Abl(Y253F) (h) (human) (P00519 27-1130 Y253F limits assumed): as the sequence (P00519 27-1130 T315I limits assumed) above, with Y227F, I289T counted along it
Chain of ZAP-70 (h) (human) (P43403 whole entry): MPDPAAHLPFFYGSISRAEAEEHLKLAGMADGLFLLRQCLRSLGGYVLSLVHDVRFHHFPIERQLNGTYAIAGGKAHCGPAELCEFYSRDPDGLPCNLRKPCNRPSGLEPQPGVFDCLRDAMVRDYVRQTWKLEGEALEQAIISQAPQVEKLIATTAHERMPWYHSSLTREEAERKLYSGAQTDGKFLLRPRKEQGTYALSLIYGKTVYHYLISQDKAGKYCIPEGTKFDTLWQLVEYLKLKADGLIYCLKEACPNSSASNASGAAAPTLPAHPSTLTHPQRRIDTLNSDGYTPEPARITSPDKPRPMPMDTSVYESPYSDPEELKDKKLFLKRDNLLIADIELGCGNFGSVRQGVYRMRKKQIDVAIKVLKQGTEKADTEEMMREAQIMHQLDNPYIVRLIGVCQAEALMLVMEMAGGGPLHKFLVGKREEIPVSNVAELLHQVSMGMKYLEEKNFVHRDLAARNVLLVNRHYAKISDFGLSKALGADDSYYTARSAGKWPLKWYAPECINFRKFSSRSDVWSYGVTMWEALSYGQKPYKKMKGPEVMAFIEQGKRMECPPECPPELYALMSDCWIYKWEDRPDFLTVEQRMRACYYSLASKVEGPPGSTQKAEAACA
Chain of PKBβ (h) (human) (P31751 whole entry): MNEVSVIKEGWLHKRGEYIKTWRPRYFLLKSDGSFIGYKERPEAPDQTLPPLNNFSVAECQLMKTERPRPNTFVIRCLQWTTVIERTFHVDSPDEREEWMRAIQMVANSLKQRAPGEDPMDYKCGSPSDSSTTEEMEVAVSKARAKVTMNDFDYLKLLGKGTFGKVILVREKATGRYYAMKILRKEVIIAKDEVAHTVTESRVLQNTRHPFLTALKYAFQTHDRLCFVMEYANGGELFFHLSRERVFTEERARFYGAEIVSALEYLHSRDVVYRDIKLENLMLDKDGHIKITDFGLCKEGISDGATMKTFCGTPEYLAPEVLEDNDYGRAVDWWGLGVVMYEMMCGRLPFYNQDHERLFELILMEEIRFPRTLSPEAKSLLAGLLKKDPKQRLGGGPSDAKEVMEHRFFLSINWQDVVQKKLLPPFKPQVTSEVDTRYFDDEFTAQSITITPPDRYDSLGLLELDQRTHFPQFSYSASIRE

On to MMI-0300 (peptide), for which the % activity at 100 µM is 161% with VRK2 (h) (human); 89% with Mnk2 (h) (human); 47% with Pyk2 (h) (human); 97% with Abl(T315I) (h) (human); 79% with CDK5/p35 (h) (human); 86% in the assay with Abl(Y253F) (h) (human). Also, the % activity at 100 µM with PKBβ (h) (human) came out at 84%; in the assay with EphA3 (h) (human), 6%; with GSK3β (h) (human) it was 205%; with CHK2(R145W) (h) (human), 33%; with PhKγ2 (h) (human), 46%; in the assay with Pim-1 (h) (human) it was 8%. Moreover, the % activity at 100 µM is 48% with MKK6 (h) (human); 89% in the assay with JNK3 (h) (human); 75% with ZAP-70 (h) (human); 135% in the assay with PDK1 (h) (human); 132% in the assay with MARK1 (h) (human); 18% with EphA5 (h) (human). Besides, the % activity at 100 µM in the assay with HIPK3 (h) (human) is 93%; in assay [1], 5%.
